Measurements taken from article PMC6177447, “Cryo-EM structure of the hibernating Thermus thermophilus 100S ribosome reveals a protein-mediated dimerization mechanism” (Nature Communications, 2018).

Target: the molecule itself
Assay: SEC; purified TtHPF without ribosome on Superdex200 Increase 10/300 in buffer F (20 mM Hepes/KOH pH 7.5, 100 mM KCl, 10% v/v glycerol, 1 mM DTT); elution volume compared to standard proteins

B1: Thermus thermophilus hibernation-promoting factor (TtHPF) (natural protein, UniProt Q5SIS0 1-186, looked up)
chain: MNIYKLIGRNLEITDAIRDYVEKKLARLDRYQDGELMAKVVLSLAGSPHVEKKARAEIQVDLPGGLVRVEEEDADLYAAIDRAVDRLETQVKRFRERRYVGKRHSYQGPPPPEVRDLEALRKPEEEEGPRIVRVKRFEMKPMDPEEAAFQMEALGHSFFVFRNAKTDEINVIYRRKDGNYGLIEPA
notes: Hibernation-promoting factor TtHPF of Thermus thermophilus, UniProt Q5SIS0; gene amplified from genomic DNA with primers from the start codon to the stop codon; residues 2-122 (NTD and linker) and 129-185 (CTD) were modelled in the cryo-EM maps; The forward primer encodes a TEV site (ENLYFQG) directly before Met1, so a Gly probably remains at the N-terminus after TEV cleavage (surmised); The …
With B1 the “stoichiometry N” value was 2.
